Ends that are not written are not given here.

The first assay addresses GLP-1 receptor. Briefly: cell-based or functional assay.
Take HVEGTFTSDYSSYLEGQAAKEFIAWLVKGRG [Val^8-Tyr^16-GLP-1(7-37)OH]: the “GLP-1 Receptor Activation” value was 1.18 fold of GLP-1(7-37)OH.

Regarding HVEGTYTSDVSSYLEGQAAKEFIAWLVKGRG [Val^8-Tyr^12-GLP-1(7-37)OH], the “GLP-1 Receptor Activation” value was 0.81 fold of GLP-1(7-37)OH.

A further assay concerns the target GLP-1 receptor. Put plainly: cell-based or functional assay. This is another data set of the same source.
As to HVEGTFTSDVSKYLEEQAAKEFIAWLVKGRG [Val^8-Lys^18-Glu^22-GLP-1(7-37)OH], the “GLP-1 Receptor Activation” value is 1.18 fold of GLP-1(7-37)OH. For the molecule HVEGTYTSDYSSYLEGQAAKEFIAWLVKGRG [Val^8-Tyr^12-Tyr^16-GLP-1(7-37)OH], the “GLP-1 Receptor Activation” value is 0.7 fold of GLP-1(7-37)OH. The same measure, in the same setting: to HVEGTFTSDYSSFLEGQAAKEFIAWLVKGRG [Val^8-Tyr^16-Phe^19-GLP-1(7-37)OH] belongs 1.32 fold of GLP-1(7-37)OH; to HVEGTYTSDVSSYLEEQAAKEFIAWLVKGRG [Val^8-Tyr^12-Glu^22-GLP-1(7-37)OH], 1.27 fold of GLP-1(7-37)OH; to HVEGTFTSDYSSYLEGQAAKEFIAWLVKGRG [Val^8-Tyr^16-GLP-1(7-37)OH], 1.18 fold of GLP-1(7-37)OH.

As for HVEGTFTSDVSFYLEEQAAKEFIAWLVKGRG [Val^8-Phe^18-Glu^22-GLP-1(7-37)OH], the “GLP-1 Receptor Activation” value was 0.94 fold of GLP-1(7-37)OH. On the same count and under the same terms, to HVEGTFTSDVSSYLEGQALKEFIAWLVKGRG [Val^8-Leu^25-GLP-1(7-37)OH] belongs 0.24 fold of GLP-1(7-37)OH. On the same count and under the same terms, to HVEGTFTSDVSSFLEEQAAKEFIAWLVKGRG [Val^8-Phe^19-Glu^22-GLP-1(7-37)OH] belongs 0.7 fold of GLP-1(7-37)OH. The same measure, in the same setting: to HVEGTYTSDVSSYLEGQAAKEFIAWLVKGRG [Val^8-Tyr^12-GLP-1(7-37)OH] belongs 0.8 fold of GLP-1(7-37)OH; to HVEGTFTSDLSSYLEEQAAKEFIAWLVKGRG [Val^8-Leu^16-Glu^22-GLP-1(7-37)OH], 2.02 fold of GLP-1(7-37)OH; to HVEGTFTSDFSSYLEEQAAKEFIAWLVKGRG [Val^8-Phe^16-Glu^22-GLP-1(7-37)OH], 1.08 fold of GLP-1(7-37)OH.

Turning to HVEGTWTSDVSSYLEEQAAKEFIAWLVKGRG [Val^8-Trp^12-Glu^22-GLP-1(7-37)OH], the “GLP-1 Receptor Activation” value is 0.8 fold of GLP-1(7-37)OH.

HVEGTFTSDISSYLEEQAAKEFIAWLVKGRG [Val^8-Ile^16-Glu^22-GLP-1(7-37)OH]: the “GLP-1 Receptor Activation” value is 1.55 fold of GLP-1(7-37)OH. On the same count and under the same terms, to HVEGTFTSDVSIYLEEQAAKEFIAWLVKGRG [Val^8-Ile^18-Glu^22-GLP-1(7-37)OH] belongs 1.88 fold of GLP-1(7-37)OH. Regarding HVEGTFTSDVSSWLEEQAAKEFIAWLVKGRG [Val^8-Trp^19-Glu^22-GLP-1(7-37)OH], the “GLP-1 Receptor Activation” value was 1.5 fold of GLP-1(7-37)OH.

For the next assay, the target named is GLP-1 receptor. Put plainly: cell-based or functional assay. The source holds these as a separate data set.
With HVEGTFTSDLSKQMEGQAAKEFIAWLVKGRG, the “In Vitro Activity (% of Val^8-GLP-1(7-37)OH)” value was 0.11 % of Val^8-GLP-1(7-37)OH. The same measure, in the same setting: to HVEGTFTSDVSSYLEEEAVRLFIAWLVKGRG belongs 1.47 % of Val^8-GLP-1(7-37)OH.

As for HVEGTFTSDLSKQMEEEAVRLFIAWLVKGRG, the “In Vitro Activity (% of Val^8-GLP-1(7-37)OH)” value was 2.86 % of Val^8-GLP-1(7-37)OH. Regarding HGEGTFTSDLSKQMEEEAVRLFIAWLVKGRG, the “In Vitro Activity (% of Val^8-GLP-1(7-37)OH)” value is 3.25 % of Val^8-GLP-1(7-37)OH. Same read-out and setting: to HGEGTFTSDLSSYLEEEAVRLFIEWLKNGGP-NH2 [HGEGTFTSDLSSYLEEEAVRLFIEWLKNGGP-NH2] belongs 5.07 % of Val^8-GLP-1(7-37)OH; to HGEGTFTSDLSKQMEEEAAKEFIEWLKNGGP-NH2 [HGEGTFTSDLSKQMEEEAAKEFIEWLKNGGP-NH2], 2.8 % of Val^8-GLP-1(7-37)OH. The same measure, in the same setting: to HGEGTFTSDLSKQMEGQAAKEFIEWLKNGGP-NH2 [HGEGTFTSDLSKQMEGQAAKEFIEWLKNGGP-NH2] belongs 1.44 % of Val^8-GLP-1(7-37)OH; to HGEGTFTSDVSSYLEEEAVRLFIEWLKNGGP-NH2 [HGEGTFTSDVSSYLEEEAVRLFIEWLKNGGP-NH2], 5.4 % of Val^8-GLP-1(7-37)OH; to HAEGTFTSDVSKQLEEEAAKEFIAWLVKGRG, 2.15 % of Val^8-GLP-1(7-37)OH.

HAEGTFTSDVSSYLEGQAAKEFIAWLVKGRPSSGAPPPS-NH2 [HAEGTFTSDVSSYLEGQAAKEFIAWLVKGRPSSGAPPPS-NH2]: the “In Vitro Activity (% of Val^8-GLP-1(7-37)OH)” value was 3.3 % of Val^8-GLP-1(7-37)OH. The same measure, in the same setting: to HVEGTFTSDVSSYLEGQAAKEFIAWLVKGRG [Val^8-GLP-1(7-37)OH] belongs 1 % of Val^8-GLP-1(7-37)OH. On the same count and under the same terms, to HVEGTFTSDVSSYLEGQAAKEFIEWLKNGGP-NH2 [HVEGTFTSDVSSYLEGQAAKEFIEWLKNGGP-NH2] belongs 2.36 % of Val^8-GLP-1(7-37)OH.

The record behind these values is patent US20040053370A1 (Eli Lilly, published 2004).
